Test results published in patent US20040014194A1, “Beta-secretase crystals and methods for preparing and using the same” (Schering Corporation, priority 2002, published 2004).

Target: T1, β-secretase purified from Sf-9 cells (Homo sapiens, UniProt P56817)
T1 construct: made in house; host or cells: Sf9 insect cells, baculovirus (Bac-to-Bac), secreted into the medium
Assay: HPLC assay of β-secretase enzymatic activity with a peptide substrate derived from "Swedish" amyloid protein peptide
Type: biochemical
Conditions: proBACE compared with mature BACE
Protocol: To assess the functionality of β-secretase purified from Sf-9 cells, an HPLC assay was developed using a peptide substrate derived from the sequence of “Swedish” amyloid protein peptide (Dreyer et al., (1994) Eur J. Biochem 224: 265-271). In these assays, ProBACE (SEQ ID NO: 2) and mature BACE (SEQ ID NO: 1) were tested.

Molecule	enzymatic activity with substrate Biotin-KSEVNL*DAEFRK-Fluorescein
mature BACE: glycosylated, soluble fragment of mature human BACE, autoprocessed from proBACE at pH 4.0 (protein, listed as Homo sapiens, glycosylated, glycosylated, soluble fragment of mature human BACE, autoprocessed from proBACE at pH 4.0) ETDEEPEEPGRRGSFVEMVDNLRGKSGQGYYVEMTVGSPPQTLNILVDTGSSNFAVGAAPHPFLHRYYQRQLSSTYRDLRKGVYVPYTQGKWEGELGTDLVSIPHGPNVTVRANIAAITESDKFFINGSNWEGILGLAYAEIARPDDSLEPFFDSLVKQTHVPNLFSLQLCGAGFPLNQSEVLASVGGSMIIGGIDHSLYTGSLWYTPIRREWYYEVIIVRVEINGQDLKMDCKEYNYDKSIVDSGTTNLRLPKKVFEAAVKSIKAASSTEKFPDGFWLGEQLVCWQAGTTPWNIFPVISLYLMGEVTNQSFRITILPQQYLRPVEDVATSQDDCYKFAISQSSTGTVMGAVIMEGFYVVFDRARKRIGFAVSACHVHDEFRTAAVEGPFVTLDMEDCGYNIPQTDESTLE	equivalent
proBACE: immature, soluble human β-secretase with amino-terminal propeptide, expressed in Sf9 insect cells (protein, listed as Homo sapiens) TQHGIRLPLRSGLGGAPLGLRLPRETDEEPEEPGRRGSFVEMVDNLRGKSGQGYYVEMTVGSPPQTLNILVDTGSSNFAVGAAPHPFLHRYYQRQLSSTYRDLRKGVYVPYTQGKWEGELGTDLVSIPHGPNVTVRANIAAITESDKFFINGSNWEGILGLAYAEIARPDDSLEPFFDSLVKQTHVPNLFSLQLCGAGFPLNQSEVLASVGGSMIIGGIDHSLYTGSLWYTPIRREWYYEVIIVRVEINGQDLKMDCKEYNYDKSIVDSGTTNLRLPKKVFEAAVKSIKAASSTEKFPDGFWLGEQLVCWQAGTTPWNIFPVISLYLMGEVTNQSFRITILPQQYLRPVEDVATSQDDCYKFAISQSSTGTVMGAVIMEGFYVVFDRARKRIGFAVSACHVHDEFRTAAVEGPFVTLDMEDCGYNIPQTDESTLE	equivalent
